Results on 1 substance are retold here after patent US6068841.

The assay concerns the target mouse Fas on mouse hepatic parenchymal cells (mouse) (UniProt P25446).

“anti-mouse Fas antibody (Jo-2; product of Phar-Mingen Co.)”: the Viability (%) of mouse hepatic parenchymal cells (ALAMAR BLUE fluorescence) stood at 99%.
